# Experimental data taken from publication PMC5377238.
# B1: human S-adenosylmethionine decarboxylase (hAdoMetDC) (Homo sapiens) (protein)
# chain 1: MEAAHFFEGTEKLLEVWFSRQQPDANQGSGDLRTIPRSEWDILLKDVQCSIISVTKTDKQEAYVLSE
# chain 2: SSMFVSKRRFILKTCGTTLLLKALVPLLKLARDYSGFDSIQSFFYSRKNFMKPSHQGYPHRNFQEEIEFLNAIFPNGAAYCMGRMNSDCWYLYTLDFPESRVISQPDQTLEILMSELDPAVMDQFYMKDGVTAKDVTRESGIRDLIPGSVIDATMFNPCGYSMNGMKSDGTYWTIHITPEPEFSYVSFETNLSQTSYDDLIRKVVEVFKPGKFVTTLFVNQSSKCRTVLASPQKIEGFKRLDCQSAMFNDYNFVFTSFAKKQQQQQS
# Substrate: C[S+](CC[C@H](N)C(=O)[O-])C[C@H]1O[C@@H](n2cnc3c(N)ncnc32)[C@H](O)[C@@H]1O
# Assay: purified protein
# Conditions: pyruvoyl group (converted Ser68)
protein,measurement,value
B1,Km,3.1 ± 1.8 µM
